Data taken from patent US20160039904A1, “STABILIZED SINGLE HUMAN CD4 DOMAINS AND FUSION PROTEINS” (priority 2013, published 2016).

Key:
Assay in all cases: cell-based or functional assay
[1] = molecular target: HIV-1 Env of isolate CNE68 (HIV-1)
[2] = molecular target: HIV-1 Env of isolate CNE49 (HIV-1)
[3] = molecular target: HIV-1 Env of isolate CNE3 (HIV-1)
[4] = molecular target: HIV-1 Env of isolate CNE59 (HIV-1)
[5] = molecular target: HIV-1 Env of isolate AE03 (HIV-1)
[6] = molecular target: HIV-1 Env of isolate CNE15 (HIV-1)
[7] = molecular target: HIV-1 Env of isolate CNE23 (HIV-1)
[8] = molecular target: HIV-1 Env of isolate CNE107 (HIV-1)
[9] = molecular target: HIV-1 Env of isolate CNE53 (HIV-1)
[10] = molecular target: HIV-1 Env of isolate CNE55 (HIV-1)
[11] = molecular target: HIV-1 Env of isolate CH114 (HIV-1)
[12] = molecular target: HIV-1 Env of isolate CNE58 (HIV-1)
[13] = molecular target: HIV-1 Env of isolate CNE7 (HIV-1)
[14] = molecular target: HIV-1 Env of isolate CNE14 (HIV-1)
[15] = molecular target: HIV-1 Env of isolate CNE57 (HIV-1)
[16] = molecular target: HIV-1 Env of isolate CH120 (HIV-1)
[17] = molecular target: HIV-1 Env of isolate CNE66 (HIV-1)
[18] = molecular target: HIV-1 Env of isolate CH91 (HIV-1)
[19] = molecular target: HIV-1 Env of isolate CNE47 (HIV-1)
[20] = molecular target: HIV-1 Env of isolate CNE1 (HIV-1)
[21] = molecular target: HIV-1 Env of isolate GX2010.36 (HIV-1)
[22] = molecular target: HIV-1 Env of isolate AE20 (HIV-1)
[23] = molecular target: HIV-1 Env of isolate CNE64 (HIV-1)
[24] = molecular target: HIV-1 Env of isolate CNE40 (HIV-1)
[25] = molecular target: HIV-1 Env of isolate CNE5 (HIV-1)
[26] = molecular target: HIV-1 Env of isolate CH70 (HIV-1)
[27] = molecular target: HIV-1 Env of isolate CNE20 (HIV-1)
[28] = molecular target: HIV-1 Env of isolate CNE17 (HIV-1)
[29] = molecular target: HIV-1 Env of isolate CNE65 (HIV-1)
[30] = molecular target: HIV-1 Env of isolate CNE11 (HIV-1)
[31] = molecular target: HIV-1 Env of isolate CNE30 (HIV-1)
[32] = molecular target: HIV-1 Env of isolate CNE16 (HIV-1)
[33] = molecular target: HIV-1 Env of isolate CNE4 (HIV-1)
[34] = molecular target: HIV-1 Env of isolate CH119 (HIV-1)
[35] = molecular target: HIV-1 Env of isolate CNE9 (HIV-1)
[36] = molecular target: HIV-1 Env of isolate CNE46 (HIV-1)
[37] = molecular target: HIV-1 Env of isolate YN192.31 (HIV-1)
[38] = molecular target: HIV-1 Env of isolate CH110 (HIV-1)
[39] = molecular target: HIV-1 Env of isolate CH64 (HIV-1)
[40] = molecular target: HIV-1 Env of isolate CNE6 (HIV-1)
[41] = molecular target: HIV-1 Env of isolate CH117 (HIV-1)

## C34 (peptide)
[1]
  neutralization IC50: 2.2 nM
  neutralization IC90: 12 nM
[2]
  neutralization IC50: 2.3 nM
  neutralization IC90: 12 nM
[3]
  neutralization IC50: 7.1 nM
  neutralization IC90: 71 nM
[4]
  neutralization IC50: 3.4 nM
  neutralization IC90: 28 nM
[5]
  neutralization IC50: 24 nM
  neutralization IC90: 85 nM
[6]
  neutralization IC50: 3.8 nM
  neutralization IC90: 22 nM
[7]
  neutralization IC50: 2.1 nM
  neutralization IC90: 18 nM
[8]
  neutralization IC50: 2.8 nM
  neutralization IC90: 32 nM
[9]
  neutralization IC50: 2 nM
  neutralization IC90: 23 nM
[10]
  neutralization IC50: 7.9 nM
  neutralization IC90: 103 nM
[11]
  neutralization IC50: 5.4 nM
  neutralization IC90: 25 nM
[12]
  neutralization IC50: 2 nM
  neutralization IC90: 13 nM
[13]
  neutralization IC50: 6.4 nM
  neutralization IC90: 22 nM
[14]
  neutralization IC50: 3.9 nM
  neutralization IC90: 17 nM
[15]
  neutralization IC50: 2 nM
  neutralization IC90: 14 nM
[16]
  neutralization IC50: 4.6 nM
  neutralization IC90: 39 nM
[17]
  neutralization IC50: 2.1 nM
  neutralization IC90: 11 nM
[18]
  neutralization IC50: 2.3 nM
  neutralization IC90: 12 nM
[19]
  neutralization IC50: 1.9 nM
  neutralization IC90: 14 nM
[20]
  neutralization IC50: 0.73 nM
  neutralization IC90: 6.8 nM
[21]
  neutralization IC50: 15 nM
  neutralization IC90: 165 nM
[22]
  neutralization IC50: 7.4 nM
  neutralization IC90: 69 nM
[23]
  neutralization IC50: 5.1 nM
  neutralization IC90: 21 nM
[24]
  neutralization IC50: 0.77 nM
  neutralization IC90: 7.8 nM
[25]
  neutralization IC50: 5.9 nM
  neutralization IC90: 63 nM
[26]
  neutralization IC50: 7.6 nM
  neutralization IC90: 84 nM
[27]
  neutralization IC50: 3.3 nM
  neutralization IC90: 14 nM
[28]
  neutralization IC50: 3.2 nM
  neutralization IC90: 82 nM
[29]
  neutralization IC50: 3.1 nM
  neutralization IC90: 16 nM
[30]
  neutralization IC50: 4.6 nM
  neutralization IC90: 42 nM
[31]
  neutralization IC50: 14 nM
  neutralization IC90: 110 nM
[32]
  neutralization IC50: 11 nM
  neutralization IC90: 51 nM
[33]
  neutralization IC50: 6.3 nM
  neutralization IC90: 23 nM
[34]
  neutralization IC50: 3.3 nM
  neutralization IC90: 20 nM
[35]
  neutralization IC50: 0.87 nM
  neutralization IC90: 5.8 nM
[36]
  neutralization IC50: 6.4 nM
  neutralization IC90: 115 nM
[37]
  neutralization IC50: 27 nM
  neutralization IC90: 225 nM
[38]
  neutralization IC50: 0.78 nM
  neutralization IC90: 6.3 nM
[39]
  neutralization IC50: 1.2 nM
  neutralization IC90: 6.7 nM
[40]
  neutralization IC50: 1.6 nM
  neutralization IC90: 15 nM
[41]
  neutralization IC50: 0.6 nM
  neutralization IC90: 3.2 nM

## T20 (enfuvirtide) (peptide)
[1]
  neutralization IC50: 32 nM
  neutralization IC90: 321 nM
[2]
  neutralization IC50: 9.1 nM
  neutralization IC90: 236 nM
[3]
  neutralization IC50: 5.6 nM
  neutralization IC90: 38 nM
[4]
  neutralization IC50: 1.4 nM
  neutralization IC90: 17 nM
[5]
  neutralization IC50: 304 nM
  neutralization IC90: 510 nM
[6]
  neutralization IC50: 14 nM
  neutralization IC90: 157 nM
[7]
  neutralization IC50: 15 nM
  neutralization IC90: 228 nM
[8]
  neutralization IC50: 3.8 nM
  neutralization IC90: 45 nM
[9]
  neutralization IC50: 51 nM
  neutralization IC90: 721 nM
[10]
  neutralization IC50: 26 nM
  neutralization IC90: 549 nM
[11]
  neutralization IC50: 102 nM
  neutralization IC90: > 750 nM
[12]
  neutralization IC50: 54 nM
  neutralization IC90: 745 nM
[13]
  neutralization IC50: 4.3 nM
  neutralization IC90: 58 nM
[14]
  neutralization IC50: 9.7 nM
  neutralization IC90: 305 nM
[15]
  neutralization IC50: 2.5 nM
  neutralization IC90: 24 nM
[16]
  neutralization IC50: 11 nM
  neutralization IC90: 443 nM
[17]
  neutralization IC50: 129 nM
  neutralization IC90: 729 nM
[18]
  neutralization IC50: 8.6 nM
  neutralization IC90: 310 nM
[19]
  neutralization IC50: 4.9 nM
  neutralization IC90: 42 nM
[20]
  neutralization IC50: 1.6 nM
  neutralization IC90: 17 nM
[21]
  neutralization IC50: 255 nM
  neutralization IC90: > 750 nM
[22]
  neutralization IC50: 212 nM
  neutralization IC90: 572 nM
[23]
  neutralization IC50: 1.9 nM
  neutralization IC90: 16 nM
[24]
  neutralization IC50: 4.9 nM
  neutralization IC90: 108 nM
[25]
  neutralization IC50: 2.1 nM
  neutralization IC90: 19 nM
[26]
  neutralization IC50: 65 nM
  neutralization IC90: > 750 nM
[27]
  neutralization IC50: 5.5 nM
  neutralization IC90: 41 nM
[28]
  neutralization IC50: 42 nM
  neutralization IC90: 676 nM
[29]
  neutralization IC50: 5.9 nM
  neutralization IC90: 78 nM
[30]
  neutralization IC50: 3.5 nM
  neutralization IC90: 36 nM
[31]
  neutralization IC50: 26 nM
  neutralization IC90: 285 nM
[32]
  neutralization IC50: 14 nM
  neutralization IC90: 169 nM
[33]
  neutralization IC50: 1.7 nM
  neutralization IC90: 14 nM
[34]
  neutralization IC50: 2 nM
  neutralization IC90: 25 nM
[35]
  neutralization IC50: 1.7 nM
  neutralization IC90: 14 nM
[36]
  neutralization IC50: 26 nM
  neutralization IC90: 743 nM
[37]
  neutralization IC50: 42 nM
  neutralization IC90: 336 nM
[38]
  neutralization IC50: 4.3 nM
  neutralization IC90: 262 nM
[39]
  neutralization IC50: 3.1 nM
  neutralization IC90: 25 nM
[40]
  neutralization IC50: 1.4 nM
  neutralization IC90: 15 nM
[41]
  neutralization IC50: 2.3 nM
  neutralization IC90: 34 nM
